{"source": "paper doi:10.1101/2024.05.23.595592", "binders": {"B1": {"name": "Human IL-34 (19-241) (ligand)", "chain": "LGNEPLEMWPLTQNEECTVTGFLRDKLQYRSRLQYMKHYFPINYKISVPYEGVFRIANVTRLQRAQVSERELRYLWVLVSLSATESVQDVLLEGHPSWKYLQEVETLLLNVQQGLTDVEVSPKVESVLSLLNAPGPNLKLVRPKALLDNCFRVMELLYCSCCKQSSVLNWQDCEVPSPQSCSPEPSLQYAATQLYPPPPWSPSSPPHSTGSVRPVRAQGEGLL"}}, "target": "TREM2 R77D, biotinylated (human) (UniProt Q9NZC2)", "sequence (Q9NZC2 19-230 R77D)": "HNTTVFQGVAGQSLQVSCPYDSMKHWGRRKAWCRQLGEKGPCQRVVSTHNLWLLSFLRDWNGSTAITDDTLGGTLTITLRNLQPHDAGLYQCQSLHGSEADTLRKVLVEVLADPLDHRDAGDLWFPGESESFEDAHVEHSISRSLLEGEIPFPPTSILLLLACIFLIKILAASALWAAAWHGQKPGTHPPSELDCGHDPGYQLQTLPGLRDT", "experiment": "BLI", "data": [{"binder": "B1", "values": [{"measurement": "Kd", "result": 114, "unit": "nM"}]}]}
